One protein from patent publication US20020192789 can be followed below.

The target of data set [1] is 17 isolates from rounds 2-5 of screening exhibiting the Asp-Arg motif before the scissile bond (P2-P1).
Data set [2] addresses T1, … (negative control test peptide).
T1 chain: AVLSNVMFI

Data set [3] deals with T2, DINDDRSLF
T2 chain: DINDDRSLF

In data set [4] the target is T3, GDDDDK-β-naphthylamine.
T3 chain: GDDDDK

Data set [5] deals with T4, GDDDDKIYV (positive control test peptide).
T4 chain: GDDDDKIYV

Data set [6] deals with T5, GNYTDRMFI
T5 chain: GNYTDRMFI

Data set [7] concerns the target T6, GNYTDRRFI
T6 chain: GNYTDRRFI

In data set [8] the target is T7, GNYTDRYFI
T7 chain: GNYTDRYFI

Data set [9] has as its target T8, NKAKDRMFI
T8 chain: NKAKDRMFI

Data set [10] deals with T9, phage isolate 5-A08 display polypeptide.
T9 chain: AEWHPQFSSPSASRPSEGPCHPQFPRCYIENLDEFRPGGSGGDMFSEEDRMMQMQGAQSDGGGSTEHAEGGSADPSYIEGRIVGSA

The target in data set [11] is T10, phage isolate 5-B05 display polypeptide.
T10 chain: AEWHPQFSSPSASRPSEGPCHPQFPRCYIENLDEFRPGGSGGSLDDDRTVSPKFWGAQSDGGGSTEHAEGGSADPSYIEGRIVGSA

Data set [12] has as its target T11, phage isolate 5-H04 display polypeptide.
T11 chain: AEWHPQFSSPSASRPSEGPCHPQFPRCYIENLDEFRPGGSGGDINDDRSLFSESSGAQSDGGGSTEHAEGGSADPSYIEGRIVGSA

Data set [13] concerns the target T12, phage isolate 5-H11 display polypeptide.
T12 chain: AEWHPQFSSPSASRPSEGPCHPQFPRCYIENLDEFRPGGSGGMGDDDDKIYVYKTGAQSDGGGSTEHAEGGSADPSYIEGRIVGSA

B1: recombinant light chain enterokinase (Novagen, Madison, Wis.) (protein)
chain: IVGGSDSREGAWPWVVALYFDDQQVCGASLVSRDWLVSAAHCVYGRNMEPSKWKAVLGLHMASNLTSPQIETRLIDQIVINPHYNKRRKNNDIAMMHLEMKVNYTDYIQPICLPEENQVFPPGRICSIAGWGALIYQGSTADVLQEADVPLLSNEKCQQQMPEYNITENMVCAGYEAGGVDSCQGDSGGPLMCQENNRWLLAGVTSFGYQCALPNRPGVYARVPRFTEWIQSFLH
Consider B1, for which the “cleavage at 300 nM enterokinase (phage ELISA)” value in [1] was “All of the phage isolates were readily cleaved when the enterokinase concentration was raised to 300 nM”. In addition, in data set [2], the “enterokinase cleavage (HPLC, mass spectroscopy)” value is given as “No cleavage occurred with the negative control peptide (SEQ ID NO:198)”. Besides, the Cleavage Rate came out at 1.43 nmol/min in data set [3]; 0.46 nmol/min in [4]; 0.34 nmol/min in [5]; 0.81 nmol/min in data set [6]; 0.18 nmol/min in data set [7]; 0.24 nmol/min in data set [8]. Moreover, in [9], the Cleavage Rate was found to be 0.26 nmol/min. In addition, the rate relative to standard substrate is 3.1 in data set [3]; 1 in [4]; 0.7 in [5]; 1.8 in [6]; 0.4 in [7]; 0.5 in [8]. In [9], the rate relative to standard substrate amounted to 0.6. The ratio (Va/Vb) against reference peptide GDDDDK-βNA (relative kcat/Km) in data set [3] was found to be 30; in [5], 1; in data set [6], 3.5. In addition, the “enterokinase cleavage rate (phage ELISA, release from streptavidin)” value is “the cleavage rate for ... 5-H11 (SEQ ID NO:194) was slower than for at least three of the other isolates, i.e., 5-A08 (SEQ ID NO:137), 5-B05 (SEQ ID NO:145) and 5-H04 (SEQ ID NO:188)” in data set [10]; “the cleavage rate for ... 5-H11 (SEQ ID NO:194) was slower than for at least three of the other isolates, i.e., 5-A08 (SEQ ID NO:137), 5-B05 (SEQ ID NO:145) and 5-H04 (SEQ ID NO:188)” in [11]; “isolate 5-H04 (SEQ ID NO:188) shown in Table 5 was the most readily cut” in [12]; “the cleavage rate for the (Asp)4-Lys-containing recognition sequence 5-H11 (SEQ ID NO:194) was slower than for at least three of the other isolates” in [13].
